According to IntAct's records for PubMed 18930710:

B1: Ras-related protein Rap-2a (Homo sapiens), P10114 (parent)
chain: MREYKVVVLGSGGVGKSALTVQFVTGTFIEKYDPTIEDFYRKEIEVDSSPSVLEILDTAGTEQFASMRDLYIKNGQGFILVYSLVNQQSFQDIKPMRDQIIRVKRYEKVPVILVGNKVDLESEREVSSSEGRALAEEWGCPFMETSAKSKTMVDELFAEIVRQMNYAAQPDKDDPCCSACNIQ

Variants of: B1
Details: with mink1_human MINK1, Q8N4C8
Chain of mink1_human MINK1, Q8N4C8 (Q8N4C8 whole entry, looked up): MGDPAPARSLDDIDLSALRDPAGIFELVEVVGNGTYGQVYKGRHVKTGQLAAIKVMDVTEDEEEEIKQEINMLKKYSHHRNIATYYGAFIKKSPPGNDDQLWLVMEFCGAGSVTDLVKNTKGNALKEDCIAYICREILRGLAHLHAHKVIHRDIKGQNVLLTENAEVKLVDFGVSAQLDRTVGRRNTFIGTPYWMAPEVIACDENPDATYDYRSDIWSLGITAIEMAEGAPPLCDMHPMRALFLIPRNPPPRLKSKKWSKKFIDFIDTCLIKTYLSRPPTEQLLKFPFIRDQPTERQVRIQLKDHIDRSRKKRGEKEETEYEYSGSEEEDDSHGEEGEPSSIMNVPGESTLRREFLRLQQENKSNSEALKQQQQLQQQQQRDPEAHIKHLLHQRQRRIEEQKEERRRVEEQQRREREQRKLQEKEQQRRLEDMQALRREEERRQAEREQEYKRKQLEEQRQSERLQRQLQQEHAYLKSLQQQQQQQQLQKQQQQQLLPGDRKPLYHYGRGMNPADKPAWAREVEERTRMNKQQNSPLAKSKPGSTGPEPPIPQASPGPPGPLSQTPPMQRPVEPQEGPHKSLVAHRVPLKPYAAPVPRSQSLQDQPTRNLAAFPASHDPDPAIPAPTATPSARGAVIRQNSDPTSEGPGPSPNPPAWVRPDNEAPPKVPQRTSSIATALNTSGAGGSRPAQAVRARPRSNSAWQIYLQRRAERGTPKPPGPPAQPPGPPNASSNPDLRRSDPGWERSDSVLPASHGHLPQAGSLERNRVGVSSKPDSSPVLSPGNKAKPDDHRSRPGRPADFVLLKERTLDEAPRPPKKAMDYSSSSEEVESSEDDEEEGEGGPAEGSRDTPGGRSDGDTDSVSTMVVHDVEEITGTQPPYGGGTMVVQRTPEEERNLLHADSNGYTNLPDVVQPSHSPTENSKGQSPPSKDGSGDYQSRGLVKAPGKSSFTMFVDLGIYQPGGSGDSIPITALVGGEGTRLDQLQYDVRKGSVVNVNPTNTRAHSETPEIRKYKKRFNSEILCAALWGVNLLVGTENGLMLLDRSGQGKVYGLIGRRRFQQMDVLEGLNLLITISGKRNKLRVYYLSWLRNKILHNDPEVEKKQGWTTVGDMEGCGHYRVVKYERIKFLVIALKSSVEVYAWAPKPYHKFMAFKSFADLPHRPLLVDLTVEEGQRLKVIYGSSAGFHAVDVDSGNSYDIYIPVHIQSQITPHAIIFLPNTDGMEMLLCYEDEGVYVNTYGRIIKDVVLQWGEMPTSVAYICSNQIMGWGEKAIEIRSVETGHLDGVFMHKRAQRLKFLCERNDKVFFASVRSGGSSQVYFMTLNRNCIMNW

Row | Variant | effect of a mutation on the interaction
1 | MREYKVVVLGSGGVGKSALTVQFVTGTFIEKYDPTIEDSYRKEIEVDSSPSVLEILDTAGTEQFASMRDLYIKNGQGFILVYSLVNQQSFQDIKPMRDQIIRVKRYEKVPVILVGNKVDLESEREVSSSEGRALAEEWGCPFMETSAKSKTMVDELFAEIVRQMNYAAQPDKDDPCCSACNIQ [F39S] | disrupting interaction
2 | MREYKVVVLGSGGVGKNALTVQFVTGTFIEKYDPTIEDFYRKEIEVDSSPSVLEILDTAGTEQFASMRDLYIKNGQGFILVYSLVNQQSFQDIKPMRDQIIRVKRYEKVPVILVGNKVDLESEREVSSSEGRALAEEWGCPFMETSAKSKTMVDELFAEIVRQMNYAAQPDKDDPCCSACNIQ [S17N] | disrupting interaction

Variants of: B1
Details: with mink1_mouse Mink1, Q9JM52
Chain of mink1_mouse Mink1, Q9JM52 (Q9JM52 whole entry): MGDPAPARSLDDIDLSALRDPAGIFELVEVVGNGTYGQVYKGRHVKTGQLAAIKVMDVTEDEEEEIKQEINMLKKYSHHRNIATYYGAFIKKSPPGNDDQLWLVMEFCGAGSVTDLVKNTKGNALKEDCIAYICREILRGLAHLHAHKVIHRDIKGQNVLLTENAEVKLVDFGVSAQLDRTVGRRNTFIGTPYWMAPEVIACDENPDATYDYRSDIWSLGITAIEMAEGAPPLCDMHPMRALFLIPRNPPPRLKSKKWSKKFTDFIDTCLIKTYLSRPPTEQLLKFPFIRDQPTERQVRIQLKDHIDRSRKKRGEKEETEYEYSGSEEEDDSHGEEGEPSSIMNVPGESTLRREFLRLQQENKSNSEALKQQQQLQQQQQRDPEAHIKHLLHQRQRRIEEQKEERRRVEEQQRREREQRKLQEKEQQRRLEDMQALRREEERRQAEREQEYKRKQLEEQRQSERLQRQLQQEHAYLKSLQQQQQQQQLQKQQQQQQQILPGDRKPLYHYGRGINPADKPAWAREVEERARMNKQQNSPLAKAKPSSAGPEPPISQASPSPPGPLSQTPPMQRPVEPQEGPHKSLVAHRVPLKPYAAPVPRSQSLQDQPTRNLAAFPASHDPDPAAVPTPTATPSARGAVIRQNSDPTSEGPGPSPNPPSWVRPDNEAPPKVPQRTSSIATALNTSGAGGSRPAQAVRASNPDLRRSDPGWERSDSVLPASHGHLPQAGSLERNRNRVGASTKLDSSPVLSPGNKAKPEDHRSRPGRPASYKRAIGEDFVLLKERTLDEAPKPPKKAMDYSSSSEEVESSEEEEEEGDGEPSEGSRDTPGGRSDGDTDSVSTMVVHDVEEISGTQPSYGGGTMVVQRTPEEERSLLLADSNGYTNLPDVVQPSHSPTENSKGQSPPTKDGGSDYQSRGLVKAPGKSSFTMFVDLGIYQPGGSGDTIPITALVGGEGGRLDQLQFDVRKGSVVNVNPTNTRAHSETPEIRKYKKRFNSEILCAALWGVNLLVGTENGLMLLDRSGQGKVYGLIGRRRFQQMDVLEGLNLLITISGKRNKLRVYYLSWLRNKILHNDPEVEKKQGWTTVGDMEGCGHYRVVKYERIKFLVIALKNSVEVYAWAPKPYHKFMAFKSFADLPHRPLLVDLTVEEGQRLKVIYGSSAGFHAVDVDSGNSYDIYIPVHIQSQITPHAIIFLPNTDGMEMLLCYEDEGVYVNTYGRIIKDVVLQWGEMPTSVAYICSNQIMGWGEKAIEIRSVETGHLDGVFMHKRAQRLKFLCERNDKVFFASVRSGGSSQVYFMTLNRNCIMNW

Row | Variant | effect of a mutation on the interaction
3 | MREYKVVVLGSGGVGKSALTVQFVTGTFIEKYDPTIEDSYRKEIEVDSSPSVLEILDTAGTEQFASMRDLYIKNGQGFILVYSLVNQQSFQDIKPMRDQIIRVKRYEKVPVILVGNKVDLESEREVSSSEGRALAEEWGCPFMETSAKSKTMVDELFAEIVRQMNYAAQPDKDDPCCSACNIQ [F39S] | decreasing interaction
